Laboratory results as given in US20250262210A1 (TRUSTEES OF COLUMBIA UNIVERSITY IN THE CITY OF NEW YORK, published 2025).

What was measured:
Assay in all cases: IP/MS, LZTR1 R810W-FLAG, U87
CDC42BPA = CDC42BPA (human, UniProt Q5VT25 1-1732, limits assumed)
Method in brief: (§1)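 Gel slices were reduced with 5 mM DTT, alkylated with 11 mM IAA and digested overnight at 37° C. with trypsin. Peptides were analysed on an Orbitrap Fusion Tribrid by LC-MS/MS.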

RANBP6 = target: T1, RANBP6 (human, UniProt O60518 2-1105)
T1 sequence (looked up): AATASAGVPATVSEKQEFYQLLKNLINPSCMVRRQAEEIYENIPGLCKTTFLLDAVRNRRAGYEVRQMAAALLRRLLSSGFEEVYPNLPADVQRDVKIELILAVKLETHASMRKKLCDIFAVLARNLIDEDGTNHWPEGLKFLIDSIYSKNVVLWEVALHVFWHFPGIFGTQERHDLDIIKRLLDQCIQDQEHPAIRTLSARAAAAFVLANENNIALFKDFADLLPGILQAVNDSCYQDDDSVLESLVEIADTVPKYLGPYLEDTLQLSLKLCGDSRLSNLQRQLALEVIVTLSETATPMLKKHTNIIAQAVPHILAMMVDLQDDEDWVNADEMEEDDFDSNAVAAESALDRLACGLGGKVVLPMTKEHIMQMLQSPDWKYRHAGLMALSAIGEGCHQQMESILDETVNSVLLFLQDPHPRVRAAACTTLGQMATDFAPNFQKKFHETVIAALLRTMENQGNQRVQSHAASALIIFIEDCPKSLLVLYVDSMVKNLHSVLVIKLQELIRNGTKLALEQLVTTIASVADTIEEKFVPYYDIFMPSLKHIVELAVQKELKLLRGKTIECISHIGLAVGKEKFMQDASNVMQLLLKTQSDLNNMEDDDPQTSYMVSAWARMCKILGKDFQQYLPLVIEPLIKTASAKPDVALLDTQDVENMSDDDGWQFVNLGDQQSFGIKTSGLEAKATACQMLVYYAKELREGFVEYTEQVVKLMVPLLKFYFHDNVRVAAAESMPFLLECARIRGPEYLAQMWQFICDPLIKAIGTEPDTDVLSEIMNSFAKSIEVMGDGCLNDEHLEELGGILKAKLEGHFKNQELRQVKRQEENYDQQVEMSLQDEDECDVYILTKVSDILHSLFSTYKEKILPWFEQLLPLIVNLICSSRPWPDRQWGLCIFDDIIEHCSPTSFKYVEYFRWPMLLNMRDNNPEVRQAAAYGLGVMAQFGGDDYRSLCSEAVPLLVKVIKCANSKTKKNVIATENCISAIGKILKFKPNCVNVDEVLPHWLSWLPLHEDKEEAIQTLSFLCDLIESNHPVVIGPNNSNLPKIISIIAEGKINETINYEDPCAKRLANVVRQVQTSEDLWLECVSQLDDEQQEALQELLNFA
Method in brief: as §1

DIP2B = DIP2B (human, UniProt Q9P265 1-1576)
Method in brief: as §1

MED24 = target: T2, MED24 (human, UniProt O75448 1-989, limits assumed)
T2 sequence (looked up): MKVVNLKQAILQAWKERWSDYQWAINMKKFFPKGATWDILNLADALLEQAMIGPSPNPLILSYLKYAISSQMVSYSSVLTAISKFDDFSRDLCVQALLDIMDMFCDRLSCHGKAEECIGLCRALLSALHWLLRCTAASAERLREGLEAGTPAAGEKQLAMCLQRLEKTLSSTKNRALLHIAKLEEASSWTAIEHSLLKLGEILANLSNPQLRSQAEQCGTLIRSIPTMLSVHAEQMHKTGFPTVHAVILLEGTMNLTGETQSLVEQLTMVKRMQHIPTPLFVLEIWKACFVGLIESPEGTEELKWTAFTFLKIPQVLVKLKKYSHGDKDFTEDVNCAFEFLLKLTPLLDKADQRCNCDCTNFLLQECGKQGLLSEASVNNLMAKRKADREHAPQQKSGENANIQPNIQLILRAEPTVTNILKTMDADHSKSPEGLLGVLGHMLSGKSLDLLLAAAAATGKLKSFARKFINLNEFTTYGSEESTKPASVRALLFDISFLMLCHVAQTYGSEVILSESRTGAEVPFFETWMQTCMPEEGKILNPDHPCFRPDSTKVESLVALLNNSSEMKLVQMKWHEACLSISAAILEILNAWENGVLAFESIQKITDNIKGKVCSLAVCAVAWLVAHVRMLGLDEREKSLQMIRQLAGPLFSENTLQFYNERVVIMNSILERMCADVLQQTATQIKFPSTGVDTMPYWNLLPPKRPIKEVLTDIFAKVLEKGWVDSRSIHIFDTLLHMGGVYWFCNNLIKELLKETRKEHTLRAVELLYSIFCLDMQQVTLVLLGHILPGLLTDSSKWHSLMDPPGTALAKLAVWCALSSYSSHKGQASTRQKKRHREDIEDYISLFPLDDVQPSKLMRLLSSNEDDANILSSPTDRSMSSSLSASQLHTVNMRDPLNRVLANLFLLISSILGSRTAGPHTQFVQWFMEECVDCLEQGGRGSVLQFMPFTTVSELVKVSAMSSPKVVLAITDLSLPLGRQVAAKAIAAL
Method in brief: as §1

Measured: binding result

Chain of CDC42BPA (Q5VT25 whole entry, the tested form may be a part): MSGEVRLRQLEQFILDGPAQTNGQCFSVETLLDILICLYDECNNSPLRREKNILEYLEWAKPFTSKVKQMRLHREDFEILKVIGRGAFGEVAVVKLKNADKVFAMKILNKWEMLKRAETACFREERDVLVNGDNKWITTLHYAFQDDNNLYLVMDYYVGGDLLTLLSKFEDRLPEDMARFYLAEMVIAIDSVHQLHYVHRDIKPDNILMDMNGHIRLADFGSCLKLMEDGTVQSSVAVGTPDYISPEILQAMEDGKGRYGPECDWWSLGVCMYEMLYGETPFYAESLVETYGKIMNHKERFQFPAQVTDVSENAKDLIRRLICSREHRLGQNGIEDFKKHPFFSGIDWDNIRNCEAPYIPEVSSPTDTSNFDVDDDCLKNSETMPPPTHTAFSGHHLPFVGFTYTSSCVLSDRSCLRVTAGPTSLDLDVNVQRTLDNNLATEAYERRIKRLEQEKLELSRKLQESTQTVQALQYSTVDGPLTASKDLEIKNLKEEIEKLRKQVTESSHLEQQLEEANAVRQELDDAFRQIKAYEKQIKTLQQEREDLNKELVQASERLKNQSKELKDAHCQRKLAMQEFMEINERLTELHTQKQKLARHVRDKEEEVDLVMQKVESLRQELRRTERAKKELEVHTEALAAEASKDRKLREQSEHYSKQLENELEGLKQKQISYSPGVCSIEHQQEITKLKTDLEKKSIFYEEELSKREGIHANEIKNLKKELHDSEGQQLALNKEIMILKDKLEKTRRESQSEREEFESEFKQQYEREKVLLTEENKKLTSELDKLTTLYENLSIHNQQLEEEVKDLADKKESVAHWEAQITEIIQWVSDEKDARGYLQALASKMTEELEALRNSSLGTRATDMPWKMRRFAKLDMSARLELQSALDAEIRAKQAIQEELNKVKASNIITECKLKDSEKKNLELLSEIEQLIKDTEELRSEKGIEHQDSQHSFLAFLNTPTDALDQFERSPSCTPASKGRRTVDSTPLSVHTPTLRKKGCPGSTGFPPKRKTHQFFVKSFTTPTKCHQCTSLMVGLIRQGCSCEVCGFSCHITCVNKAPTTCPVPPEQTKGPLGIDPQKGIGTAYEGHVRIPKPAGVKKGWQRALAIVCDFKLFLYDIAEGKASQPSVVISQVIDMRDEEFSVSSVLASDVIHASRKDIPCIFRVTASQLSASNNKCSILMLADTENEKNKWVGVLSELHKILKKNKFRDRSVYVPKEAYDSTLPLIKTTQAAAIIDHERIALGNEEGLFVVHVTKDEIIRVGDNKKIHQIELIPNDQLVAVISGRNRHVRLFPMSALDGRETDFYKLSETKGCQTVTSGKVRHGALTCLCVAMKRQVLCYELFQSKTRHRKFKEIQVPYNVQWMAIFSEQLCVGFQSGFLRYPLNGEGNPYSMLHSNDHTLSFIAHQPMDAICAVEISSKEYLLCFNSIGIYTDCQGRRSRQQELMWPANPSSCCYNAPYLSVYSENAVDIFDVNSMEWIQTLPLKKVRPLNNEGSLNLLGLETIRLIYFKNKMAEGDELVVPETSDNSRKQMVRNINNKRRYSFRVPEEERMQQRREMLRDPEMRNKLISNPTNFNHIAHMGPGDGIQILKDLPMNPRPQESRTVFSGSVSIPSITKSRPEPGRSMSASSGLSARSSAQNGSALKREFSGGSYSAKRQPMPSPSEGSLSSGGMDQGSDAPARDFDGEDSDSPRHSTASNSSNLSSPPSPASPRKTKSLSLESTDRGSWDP
Chain of DIP2B (Q9P265 whole entry): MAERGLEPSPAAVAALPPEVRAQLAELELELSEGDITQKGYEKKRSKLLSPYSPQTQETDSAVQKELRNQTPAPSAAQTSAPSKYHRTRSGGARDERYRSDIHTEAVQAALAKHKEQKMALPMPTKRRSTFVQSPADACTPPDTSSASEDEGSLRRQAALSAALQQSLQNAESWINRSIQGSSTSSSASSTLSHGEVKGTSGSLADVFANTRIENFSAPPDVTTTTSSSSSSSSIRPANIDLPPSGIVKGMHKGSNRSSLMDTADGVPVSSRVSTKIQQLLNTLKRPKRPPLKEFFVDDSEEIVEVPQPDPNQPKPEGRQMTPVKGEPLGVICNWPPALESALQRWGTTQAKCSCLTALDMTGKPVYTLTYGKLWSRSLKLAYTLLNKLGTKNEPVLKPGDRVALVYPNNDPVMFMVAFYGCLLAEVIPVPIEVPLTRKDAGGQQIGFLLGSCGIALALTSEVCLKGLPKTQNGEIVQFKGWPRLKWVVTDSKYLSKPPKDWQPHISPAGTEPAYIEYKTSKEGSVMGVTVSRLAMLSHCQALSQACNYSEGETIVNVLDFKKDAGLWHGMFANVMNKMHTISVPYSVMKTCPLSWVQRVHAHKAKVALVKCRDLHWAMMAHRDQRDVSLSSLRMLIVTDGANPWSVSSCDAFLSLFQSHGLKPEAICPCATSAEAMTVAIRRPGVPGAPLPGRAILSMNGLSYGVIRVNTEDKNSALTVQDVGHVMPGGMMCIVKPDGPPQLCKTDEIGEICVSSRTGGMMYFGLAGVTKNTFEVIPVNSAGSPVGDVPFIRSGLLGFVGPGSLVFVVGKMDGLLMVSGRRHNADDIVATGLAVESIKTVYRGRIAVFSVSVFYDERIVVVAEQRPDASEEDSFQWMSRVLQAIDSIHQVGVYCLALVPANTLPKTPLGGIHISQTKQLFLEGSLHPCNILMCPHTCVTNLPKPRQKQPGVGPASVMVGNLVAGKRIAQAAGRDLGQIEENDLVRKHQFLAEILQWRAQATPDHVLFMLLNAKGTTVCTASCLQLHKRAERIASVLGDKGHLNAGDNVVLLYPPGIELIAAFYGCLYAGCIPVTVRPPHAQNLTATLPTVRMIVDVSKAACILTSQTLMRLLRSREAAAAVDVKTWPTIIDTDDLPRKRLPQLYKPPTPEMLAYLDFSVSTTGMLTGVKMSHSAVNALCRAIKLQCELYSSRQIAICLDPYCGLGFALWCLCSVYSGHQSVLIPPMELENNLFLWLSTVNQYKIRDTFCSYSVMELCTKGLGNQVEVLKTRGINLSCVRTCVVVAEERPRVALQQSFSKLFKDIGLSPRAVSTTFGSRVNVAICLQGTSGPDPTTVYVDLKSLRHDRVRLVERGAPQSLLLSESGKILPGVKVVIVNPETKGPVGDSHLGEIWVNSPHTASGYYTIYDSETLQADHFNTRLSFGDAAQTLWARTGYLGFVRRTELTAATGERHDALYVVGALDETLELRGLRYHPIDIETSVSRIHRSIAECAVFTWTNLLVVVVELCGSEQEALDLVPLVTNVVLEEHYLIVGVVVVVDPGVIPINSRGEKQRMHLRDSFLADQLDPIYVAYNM

B1: LZTR1 R810W-FLAG (other, human, UniProt Q8N653 1-840, looked up)
chain: MAGPGSTGGQIGAAALAGGARSKVAPSVDFDHSCSDSVEYLTLNFGPFETVHRWRRLPPCDEFVGARRSKHTVVAYKDAIYVFGGDNGKTMLNDLLRFDVKDCSWCRAFTTGTPPAPRYHHSAVVYGSSMFVFGGYTGDIYSNSNLKNKNDLFEYKFATGQWTEWKIEGRLPVARSAHGATVYSDKLWIFAGYDGNARLNDMWTIGLQDRELTCWEEVAQSGEIPPSCCNFPVAVCRDKMFVFSGQSGAKITNNLFQFEFKDKTWTRIPTEHLLRGSPPPPQRRYGHTMVAFDRHLYVFGGAADNTLPNELHCYDVDFQTWEVVQPSSDSEVGGAEVPERACASEEVPTLTYEERVGFKKSRDVFGLDFGTTSAKQPTQPASELPSGRLFHAAAVISDAMYIFGGTVDNNIRSGEMYRFQFSCYPKCTLHEDYGRLWESRQFCDVEFVLGEKEECVQGHVAIVTARSRWLRRKITQARERLAQKLEQEAAPVPREAPGVAAGGARPPLLHVAIREAEARPFEVLMQFLYTDKIKYPRKGHVEDVLLIMDVYKLALSFQLCRLEQLCRQYIEASVDLQNVLVVCESAARLQLSQLKEHCLNFVVKESHFNQVIMMKEFERLSSPLIVEIVRRKQQPPPRTPLDQPVDIGTSLIQDMKAYLEGAGAEFCDITLLLDGHPRPAHKAILAARSSYFEAMFRSFMPEDGQVNISIGEMVPSRQAFESMLRYIYYGEVNMPPEDSLYLFAAPYYYGFYNNRLQAYCKQNLEMNVTVQNVLQILEAADKTQALDMKRHCLHIIVHQFTKVSKLPTLWSLSQQLLLDIIDSLASHISDKQCAELGADI
notes: Stably expressed in U87 cells by lentivirus; also called LZTR1-FLAG-R810W; LZTR1 RW; not shown: FLAG tag
binds: CDC42BPA | RANBP6 | DIP2B | MED24
